The target of experiment [1] is T1, HER3 (human epidermal growth factor receptor 3) (human, UniProt P21860 20-1342). The experiment in a line: cell-based or functional assay.
In experiment [2] the target is T1, HER3 (human epidermal growth factor …). Kind of experiment: FACS (MFI) on MDA-MB-468 cells, medium HER3 expression; anti-human IgG-Fc-PE secondary. As for the experimental part: (§1) The cells were incubated at 4° C. for 60 min and centrifuged at 1000 rpm for 5 min. […] The cells were washed 3 times with pre-cooled PBS (pH 7.4) and resuspended in 100 μL of PBS (pH 7.4), and then the fluorescence signals were analyzed and detected using a flow cytometer (Sartorius, iQUE). […] Data were analyzed using GraphPad Prism5.

For experiment [3] the target is unchanged. The experiment in a line: FACS (MFI) on HCC1569 cells, high HER3 expression; anti-human IgG-Fc-PE secondary. As for the experimental part: as §1
Experiment [4] has the same target. The experiment in a line: FACS (MFI) on MCF-7 cells, high HER3 expression; anti-human IgG-Fc-PE secondary. As for the experimental part: as §1
For experiment [5] the target is unchanged. Kind of experiment: FACS (MFI) on BT474 cells, high HER3 expression; anti-human IgG-Fc-PE secondary. As for the experimental part:
as §1

Experiment [6] has the same target. Kind of experiment: FACS (MFI) on JIMT-1 cells, medium HER3 expression; anti-human IgG-Fc-PE secondary. As for the experimental part: as §1
The target is the same in experiment [7]. The experiment in a line: FACS (MFI) on SW620 cells, low HER3 expression; anti-human IgG-Fc-PE secondary. As for the experimental part:
as §1

B1: Patritumab-eribulin-D2 (antibody, human IgG1, kappa, V domains shown)
VH: QVQLQQWGAGLLKPSETLSLTCAVYGGSFSGYYWSWIRQPPGKGLEWIGEINHSGSTNYNPSLKSRVTISVETSKNQFSLKLSSVTAADTAVYYCARDKWTWYFDLWGRGTLVTVSS
VL: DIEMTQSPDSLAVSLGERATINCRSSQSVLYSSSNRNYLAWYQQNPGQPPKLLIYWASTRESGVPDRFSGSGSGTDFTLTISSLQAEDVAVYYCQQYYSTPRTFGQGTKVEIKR
modifications: MC-GGFG-eribulin (compound III-1) conjugated to cysteine sulfhydryls freed by TCEP reduction of the antibody's disulfide bonds; positions not given; average DAR 2.6 per antibody
notes: also called patritumab-eribulin conjugate with a DAR of 2.6
For B1, in experiment [1], the “Endocytosis EC50 (nM), BT474 cells, pHrodo Green-labelled anti-human IgG Fc, FACS” value (shortened to “Endocytosis EC50 (nM), BT474 cells”) is 1.07 nM. In experiment [1], the “Endocytosis EC50 (nM), MCF-7 cells, pHrodo Green-labelled anti-human IgG Fc, FACS” value (from here on “Endocytosis EC50 (nM), MCF-7 cells”) came to 0.58 nM. In addition, the “Endocytosis EC50 (nM), NCI-N87 cells, pHrodo Green-labelled anti-human IgG Fc, FACS” value (“Endocytosis EC50 (nM), NCI-N87 cells” for short) in experiment [1] turned out to be 4.5 nM. Besides, the EC50 in experiment [2] came to 1.56 nM; in experiment [3], 1.42 nM; in experiment [4], 0.855 nM; in experiment [5] it was 3.05 nM; in experiment [6], 1.59 nM; in experiment [7], 1.89 nM.

B2: Patritumab (antibody, human IgG1, kappa, V domains shown)
VH: B1 VH
VL: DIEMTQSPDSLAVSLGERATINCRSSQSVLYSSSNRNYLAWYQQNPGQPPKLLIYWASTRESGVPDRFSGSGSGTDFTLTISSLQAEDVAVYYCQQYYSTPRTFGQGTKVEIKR
notes: Naked antibody expressed in Expi-CHO cells and purified by Protein A; also called fully human anti-HER3 monoclonal antibody
Turning to B2, the “Endocytosis EC50 (nM), BT474 cells” value in experiment [1] came out at 0.821 nM. For the same molecule, the “Endocytosis EC50 (nM), MCF-7 cells” value in experiment [1] came out at 0.509 nM. The EC50 in experiment [2] stood at 1.3 nM; in experiment [4], 0.807 nM; in experiment [5], 3.02 nM; in experiment [6], 1.51 nM; in experiment [7] it was 1.47 nM.

B3: Patritumab-DDDXd-D8 (antibody, human IgG1, kappa, V domains shown)
VH: B1 VH
VL: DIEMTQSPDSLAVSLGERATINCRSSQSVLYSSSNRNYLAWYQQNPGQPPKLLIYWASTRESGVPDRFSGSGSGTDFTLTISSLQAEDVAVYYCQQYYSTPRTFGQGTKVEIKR
modifications: MC-GGFG-DDDXd (deuterated MC-GGFG-DXd) conjugated to cysteine sulfhydryls freed by TCEP reduction of the antibody's disulfide bonds; positions not given; average DAR 7.9 per antibody
notes: also called patritumab-DDDXd conjugate with a DAR of 7.9; patritumab-DDDX-D8
In the case of B3, the “Endocytosis EC50 (nM), BT474 cells” value in experiment [1] was determined as 0.859 nM. Besides, the “Endocytosis EC50 (nM), MCF-7 cells” value in experiment [1] was found to be 0.869 nM. For the same molecule, the “Endocytosis EC50 (nM), NCI-N87 cells” value in experiment [1] worked out at 56.8 nM. Further, the EC50 turned out to be 1.7 nM in experiment [2]; 1.16 nM in experiment [3]; 0.77 nM in experiment [4]; 2.68 nM in experiment [5]; 1.3 nM in experiment [6]; 1.37 nM in experiment [7].

B4: Patritumab-eribulin-D8 (antibody, human IgG1, kappa, V domains shown)
VH: B1 VH
VL: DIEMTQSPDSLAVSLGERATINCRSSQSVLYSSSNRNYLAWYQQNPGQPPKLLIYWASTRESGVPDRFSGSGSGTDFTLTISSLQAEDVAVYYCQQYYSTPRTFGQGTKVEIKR
modifications: MC-GGFG-eribulin (compound III-1) conjugated to cysteine sulfhydryls freed by TCEP reduction of the antibody's disulfide bonds; positions not given; average DAR 7.6 per antibody
notes: also called patritumab-eribulin conjugate with a DAR of 7.6
In the case of B4, in experiment [1], the “Endocytosis EC50 (nM), BT474 cells” value worked out at 0.931 nM. Besides, in experiment [1], the “Endocytosis EC50 (nM), MCF-7 cells” value stood at 1.25 nM. Moreover, the “Endocytosis EC50 (nM), NCI-N87 cells” value in experiment [1] is 9.46 nM. Besides, the EC50 in experiment [2] came to 3.31 nM; in experiment [3], 1.49 nM; in experiment [4] it was 1.02 nM; in experiment [5] it was 2.85 nM; in experiment [6], 1.73 nM; in experiment [7], 1.74 nM.

B5: Patritumab-eribulin-D4 (antibody, human IgG1, kappa, V domains shown)
VH: B1 VH
VL: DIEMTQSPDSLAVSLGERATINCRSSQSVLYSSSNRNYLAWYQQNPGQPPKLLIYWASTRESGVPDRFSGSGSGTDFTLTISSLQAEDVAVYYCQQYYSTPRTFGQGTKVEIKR
modifications: MC-GGFG-eribulin (compound III-1) conjugated to cysteine sulfhydryls freed by TCEP reduction of the antibody's disulfide bonds; positions not given; average DAR 4.0-4.2 per antibody
notes: also called patritumab-eribulin conjugate with DAR of 4.0-4.2
With B5, in experiment [1], the “Endocytosis EC50 (nM), BT474 cells” value came out at 0.962 nM. In addition, in experiment [1], the “Endocytosis EC50 (nM), MCF-7 cells” value amounted to 0.797 nM. Moreover, in experiment [1], the “Endocytosis EC50 (nM), NCI-N87 cells” value was determined as 4.72 nM. Also, the EC50 in experiment [2] stood at 1.67 nM; in experiment [3], 1.49 nM; in experiment [4] it was 0.932 nM; in experiment [5], 2.78 nM; in experiment [6], 1.04 nM; in experiment [7] it was 1.28 nM.

Broadly, the EC50 is the concentration giving half of the maximal effect. Lower therefore signals a more potent agent.

The values above are taken from US20250018052A1 (CHIA TAI TIANQING PHARMACEUTICAL GROUP, published 2025).
